By Kd is commonly meant the constant that tells how readily two partners part at equilibrium. As a reminder, the EC50 (read off the curve) is the midpoint of the concentration-response curve.

Experiment [1] addresses T1, human CEACAM1 on cells (human, UniProt P13688 35-526).
T1 construct: whole, on cells; Used for endogenous CEACAM1 (526mel, Malme 3M, SKmel5, G361, NK 92MI, primary cells) and for 721.221 transfectants; also called hCEACAM1
T1 sequence (looked up): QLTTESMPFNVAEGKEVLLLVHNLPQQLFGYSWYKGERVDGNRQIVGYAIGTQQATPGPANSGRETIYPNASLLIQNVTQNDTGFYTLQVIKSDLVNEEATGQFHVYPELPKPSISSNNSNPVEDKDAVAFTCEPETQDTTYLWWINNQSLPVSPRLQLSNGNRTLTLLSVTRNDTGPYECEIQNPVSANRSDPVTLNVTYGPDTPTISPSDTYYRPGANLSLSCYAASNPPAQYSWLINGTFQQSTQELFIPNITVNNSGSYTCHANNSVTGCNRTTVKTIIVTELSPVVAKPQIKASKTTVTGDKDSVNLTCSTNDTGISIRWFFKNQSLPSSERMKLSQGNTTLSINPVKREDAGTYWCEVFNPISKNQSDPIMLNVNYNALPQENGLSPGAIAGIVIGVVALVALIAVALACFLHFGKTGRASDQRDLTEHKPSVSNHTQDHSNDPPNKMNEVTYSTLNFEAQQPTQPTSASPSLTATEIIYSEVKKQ

Experiment [2] deals with chimeric molecule composed of the extracellular portion of human CEACAM1 fused to mouse z-chain, on BW cells (human; mouse, UniProt P13688 35-428; P24161 31-164). Kind of experiment: cell-based or functional assay.
For experiment [3], the target named is T2, recombinant purified human CEACAM1 (human, UniProt P13688 35-428, limits assumed).
T2 construct: also called purified hCEACAM1; Recombinant CEACAM1
T2 sequence (looked up): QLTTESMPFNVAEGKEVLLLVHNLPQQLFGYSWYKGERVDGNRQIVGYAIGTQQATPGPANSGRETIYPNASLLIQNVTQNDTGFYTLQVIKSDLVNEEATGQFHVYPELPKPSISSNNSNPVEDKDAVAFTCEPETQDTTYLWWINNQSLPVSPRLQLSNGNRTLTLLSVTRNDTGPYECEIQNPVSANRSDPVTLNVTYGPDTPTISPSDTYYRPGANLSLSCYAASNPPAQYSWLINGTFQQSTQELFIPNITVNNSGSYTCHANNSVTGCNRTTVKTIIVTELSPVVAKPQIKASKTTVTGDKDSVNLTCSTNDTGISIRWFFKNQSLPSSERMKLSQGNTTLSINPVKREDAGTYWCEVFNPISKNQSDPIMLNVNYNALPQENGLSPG
Nature of the experiment: SPR, Biacore 3000, antibody immobilized on CM5 chip, recombinant CEACAM1 flowed; average of three independent experiments. On the procedure:
(§1) Each antibody was immobilized onto a single channel of a CM5 sensor chip of Biacore3000 instrument by NHS-EDC coupling chemistry.
(§2) Recombinant CEACAM1 was flowed at 50 μl/min over the chip in various concentrations (0.19, 0.39, 0.78, 1.56, 3.12, 6.25, 12.5 and 25 nM). The running buffer was PBS-ET (10 mM p-buffer pH7.4, 150 mM NaCl, 3.4 mM EDTA and 0.005% tween 20).

Experiment [4] deals with T1, human CEACAM1 on cells. Kind of experiment: blocking assay by FACS: SKMEL5 cells (CEACAM1 positive) pre-incubated with CM10 and washed, then soluble biotinylated CEACAM5 detected with streptavidin-APC. On the procedure: CEACAM1 positive cell line (SKMel 5) was incubated with an isotype control or CM10 in various concentrations, unbound CM10 was washed twice, followed by incubation with or without soluble biotinylated CEACAM5. The binding of the biotinylated CEACAM5 to the cells was detected by a secondary strepavidin-APC and FACS analysis. The results represent the mean of duplicate wells±SE. Similar results were obtained in two other independent experiments.
On the technique in general: A flow cytometer gives signals particle by particle.

Experiment [5] deals with T3, CEACAM4 transiently expressed on HEK 293T cells (human, UniProt O75871 36-244).
T3 construct: whole, on cells
T3 sequence (looked up): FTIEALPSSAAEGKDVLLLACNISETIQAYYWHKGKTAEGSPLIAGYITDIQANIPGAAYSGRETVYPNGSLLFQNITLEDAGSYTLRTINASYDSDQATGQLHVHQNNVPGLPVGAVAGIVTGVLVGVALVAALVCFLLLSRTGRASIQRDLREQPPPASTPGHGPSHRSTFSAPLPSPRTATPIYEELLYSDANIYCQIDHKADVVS
Nature of the experiment: flow cytometry, biotinylated CM10 plus Strep-Avidin APC on HEK 293T cells transiently expressing CEACAM-4. The method, then:
A standard FACS protocol was used with CM10 conjugated to a Biotin molecule and Strep-Avidin APC as secondary agent. […] Empty histograms represent mAb staining while red histograms represent background staining. At least 10000 cells were used to analyze CM10 binding in each histogram. FAB was calculated by dividing the MFI of the stained cells in the MFI of the background staining.

The target in experiment [6] is T2, recombinant purified human CEACAM1. Nature of the experiment: indirect ELISA on plate-bound purified human CEACAM1, double dilutions of CM10. The method, then: The binding specificity of CM10 to human CEACAM1 was tested in ELISA assay using purified human CEACAM1. Indirect ELISA using 23 double dilutions of CM10 were used to generate specific binding curve. The results shown in FIG. 2 represent average O.D. from triplicate±SE. Similar results were obtain from other ten independent experiments.

For experiment [7] the target is unchanged. Kind of experiment: SPR, Biacore 3000, antibody immobilized on CM5 chip, recombinant CEACAM1 flowed; three independent experiments. The method, then:
as §1, §2

For the molecule “chimeric molecule composed of the extracellular portion of human CEACAM1 fused to mouse z-chain, on BW cells (from UniProt P13688 35-428; P24161 31-164) (receptor)”, the mouse IL-2 secretion (ELISA), BW/221+ co-culture, no CM10 in experiment [1] amounted to 289 pg/mL.

B1: chimeric monoclonal antibody CM10 (antibody, human IgG1, kappa, V domains shown)
VH: QVQLQQSGAELVRPGTSVKVSCKASGYAFTNNLIEWVKQRPGQGLEWIGVINPGSGDTNYNEKFKGKATLTADKSSNTAYMQLSSLTSDDSAVYFCARGDYYGGFAVDYWGQGTSVTVSS
VL: DIQMTQTTSSLSASLGDRVTISCRTSQDIGNYLNWYQQKPDGTVKLLIYYTSRLHSGVPSRFSGSGSGTDYSLTISNLEQEDIATYFCQQGKSLPRTFGGGTKLEIKR
notes: made in CHO cells; PE-conjugated CM10 was used for the QuantiBRITE count; also called CM10.S91; anti CEACAM1 mAb, CM10
With B1, the “IC50 (read off the curve) of the block of mouse IL-2 secretion in the BW/221+ co-culture” value in experiment [2] is roughly 10 ng/mL. Moreover, the Kd in experiment [3] is 4.56 nM; in experiment [7], 4.07 to 5.05 nM. In experiment [4], the “IC50 (read off the curve)” value was roughly 100 ng/mL. In addition, in experiment [5], the binding result is given as “no binding (tested: 1 µg/ml)”. Moreover, in experiment [6], the “EC50 (read off the curve)” value was roughly 10 ng/mL.

These data come from patent US20170355781A1 (CCAM BIOTHERAPEUTICS, published 2017).
